What all share (assay): high-throughput RNA pulldown from lysate on Ni-NTA beads; HRP: 50 mM Tris pH 8, 150 mM NaCl, 1 mM beta-mercaptoethanol, 50 ug/ml BSA, 3 ug/ml yeast RNA, 0.5% heparin; ITC and FP: Tris pH 8, 200 mM KCl, 5% glycerol; MST: 50 mM Tris pH 8, 200 mM NaCl, 1 mM DTT, BSA, heparin, 0.05% Tween 20
Holding throughout (settings): tags: N-terminal His-eGFP

Data set [1] has as its target T1, GFP-9S library array, motif 4 ND N98Q;D124K (synthetic construct, N98Q;D124K).
T1 chain: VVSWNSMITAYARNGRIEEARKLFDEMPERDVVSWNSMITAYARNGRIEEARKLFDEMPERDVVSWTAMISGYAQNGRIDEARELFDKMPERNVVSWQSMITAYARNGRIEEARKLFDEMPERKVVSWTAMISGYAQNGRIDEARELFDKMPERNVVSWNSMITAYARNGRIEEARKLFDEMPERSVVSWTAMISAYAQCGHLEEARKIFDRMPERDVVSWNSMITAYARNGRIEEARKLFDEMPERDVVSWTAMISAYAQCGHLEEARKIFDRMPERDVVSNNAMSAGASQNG

The target of data set [2] is T2, GFP-9S library array, motif 4 ND N98Q;D124V (synthetic construct, N98Q;D124V).
T2 chain: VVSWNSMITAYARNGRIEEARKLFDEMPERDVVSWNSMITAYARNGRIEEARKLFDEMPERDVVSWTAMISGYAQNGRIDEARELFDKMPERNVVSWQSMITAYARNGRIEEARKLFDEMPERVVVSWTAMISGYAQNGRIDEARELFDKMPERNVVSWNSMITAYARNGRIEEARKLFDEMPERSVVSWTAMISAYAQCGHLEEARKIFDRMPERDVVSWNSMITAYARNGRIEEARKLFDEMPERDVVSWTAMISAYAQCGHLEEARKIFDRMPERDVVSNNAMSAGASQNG

The target in data set [3] is T3, GFP-9S library array, motif 4 ND N98G;D124K (synthetic construct, N98G;D124K).
T3 chain: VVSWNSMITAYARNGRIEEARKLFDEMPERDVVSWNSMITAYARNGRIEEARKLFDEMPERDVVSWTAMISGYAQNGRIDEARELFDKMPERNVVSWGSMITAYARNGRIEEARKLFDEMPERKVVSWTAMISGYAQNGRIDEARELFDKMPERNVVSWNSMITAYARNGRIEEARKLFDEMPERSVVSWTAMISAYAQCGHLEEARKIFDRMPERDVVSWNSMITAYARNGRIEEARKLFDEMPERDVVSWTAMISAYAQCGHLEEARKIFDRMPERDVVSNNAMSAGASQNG

Data set [4] deals with T4, GFP-9S library array, motif 4 ND N98S;D124L (synthetic construct, N98S;D124L).
T4 chain: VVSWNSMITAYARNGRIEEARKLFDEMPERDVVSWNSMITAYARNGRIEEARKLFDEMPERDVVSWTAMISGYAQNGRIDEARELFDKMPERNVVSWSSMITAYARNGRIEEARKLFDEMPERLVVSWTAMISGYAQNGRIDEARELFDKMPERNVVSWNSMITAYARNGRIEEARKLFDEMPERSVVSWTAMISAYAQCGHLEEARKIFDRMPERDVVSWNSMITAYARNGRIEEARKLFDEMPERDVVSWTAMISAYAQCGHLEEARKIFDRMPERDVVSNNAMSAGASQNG

In data set [5] the target is T5, GFP-9S library array, motif 4 ND N98L;D124A (synthetic construct, N98L;D124A).
T5 chain: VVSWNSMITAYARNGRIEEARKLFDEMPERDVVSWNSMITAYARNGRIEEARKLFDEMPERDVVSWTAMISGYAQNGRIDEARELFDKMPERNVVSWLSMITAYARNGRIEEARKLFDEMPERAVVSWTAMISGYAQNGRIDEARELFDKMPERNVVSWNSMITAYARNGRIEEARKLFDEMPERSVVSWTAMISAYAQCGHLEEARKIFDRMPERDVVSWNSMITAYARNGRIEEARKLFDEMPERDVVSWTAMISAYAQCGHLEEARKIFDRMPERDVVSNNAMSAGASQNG

B1: Cy5-rpoA-G (ssRNA)
RNA: AUUAGACGUGA
A word on the Kd: it is the free concentration of one partner at which half of the binding sites on the other are occupied at equilibrium, for simple one-to-one binding. A higher Kd goes with weaker binding. In the case of B1, the Kd was determined as 109 nM in data set [1] (label: 5' Cy5); 3040 nM in data set [2] (label: 5' Cy5); 65.4 nM in data set [3] (label: 5' Cy5); 94 nM in data set [4] (label: 5' Cy5); 71.4 nM in data set [5] (label: 5' Cy5).

B2: Cy5-rpoA (ssRNA)
RNA: AUUACACGUGA
On to B2, for which the dissociation constant Kd turned out to be 91.3 nM in data set [1] (label: 5' Cy5); 3530 nM in data set [2] (label: 5' Cy5); 103 nM in data set [3] (label: 5' Cy5); 83.5 nM in data set [4] (label: 5' Cy5); 47.4 nM in data set [5] (label: 5' Cy5).

B3: IR-rpoA-U (ssRNA)
RNA: AUUAUACGUGA
In the case of B3, the dissociation constant Kd in data set [1] (label: 5' IRDye 800CW) is 159 nM; in data set [2] (label: 5' IRDye 800CW) it was 3180 nM; in data set [3] (label: 5' IRDye 800CW), 59.7 nM; in data set [4] (label: 5' IRDye 800CW), 164 nM; in data set [5] (label: 5' IRDye 800CW), 43.4 nM.

B4: IR-rpoA-A (ssRNA)
RNA: AUUAAACGUGA
B4: the dissociation constant Kd in data set [1] (label: 5' IRDye 800CW) was found to be 257 nM; in data set [2] (label: 5' IRDye 800CW), 4090 nM; in data set [3] (label: 5' IRDye 800CW), 34.3 nM; in data set [4] (label: 5' IRDye 800CW), 159 nM; in data set [5] (label: 5' IRDye 800CW), 90.9 nM.

The values are drawn from publication PMC8809517, “Cofactor-independent RNA editing by a synthetic S-type PPR protein”.
